Here are results for 4 substances from PMC6753213.

Test [1] deals with ConM SOSIP-I53-50A (HIV-1 (consensus of Group M)). In words: not stated; purified fusion proteins; result shown in Supplementary Fig. 2d, e (not shown).
Test [2] deals with ZM197M SOSIP-I53-50A (HIV-1 (ZM197M, Clade C)). The test is described as above.
In test [3] the target is BG505 SOSIP-I53-50A.1NT1 (HIV-1 (BG505)) (UniProt Q2N0S6). The test is described as follows: negative-stain EM.
For test [4] the target is unchanged. The test is described as follows: SEC; SOSIP fusion protein after PGT145 purification, Superose 6 Increase, Assembly Buffer II (25 mM Tris, 500 mM NaCl, 5% glycerol pH 8.2); trimer and aggregate peaks. (In gel filtration, larger molecules generally elute earlier.)
For test [5], the target named is AMC011 SOSIP-I53-50A (HIV-1 (AMC011, Clade B)). The test is described as follows: not stated; purified fusion proteins; result shown in Supplementary Fig. 2d, e (not shown).

On to ConM SOSIP-I53-50A (designed binder), for which the stoichiometry N in test [1] was 3.

As for ZM197M SOSIP-I53-50A (designed binder), the stoichiometry N in test [2] was determined as 3.

“BG505 SOSIP-I53-50A.1NT1 (from UniProt Q2N0S6) (designed binder)”: the stoichiometry N in test [3] and in test [4] was 3 throughout. Consider AMC011 SOSIP-I53-50A (designed binder), for which the stoichiometry N in test [5] is 3.

Usually stoichiometry N stands for the number of molecules, sites or subunits per partner or assembly.
